The experiment addresses T1, mouse GANP protein (mouse, UniProt Q9WUU9 1-1971).
T1 construct: Endogenous 210-kD protein in lysates, cytoplasmic and nuclear fractions of WEHI-231 cells and in mouse spleen B cells; The deduced polypeptide has 1971 amino acids; It is phosphorylated at serine/threonine in the in vitro kinase reactions; also called GANP antigen; 29-15 Ag
The experiment is described as follows: co-immunoprecipitation from WEHI-231 lysate, Western blot with anti-MCM3; in vitro kinase assay and V8 cleavage mapping.

T1 sequence (Q9WUU9 other isoform, or with tags, fused parts or gaps limits assumed): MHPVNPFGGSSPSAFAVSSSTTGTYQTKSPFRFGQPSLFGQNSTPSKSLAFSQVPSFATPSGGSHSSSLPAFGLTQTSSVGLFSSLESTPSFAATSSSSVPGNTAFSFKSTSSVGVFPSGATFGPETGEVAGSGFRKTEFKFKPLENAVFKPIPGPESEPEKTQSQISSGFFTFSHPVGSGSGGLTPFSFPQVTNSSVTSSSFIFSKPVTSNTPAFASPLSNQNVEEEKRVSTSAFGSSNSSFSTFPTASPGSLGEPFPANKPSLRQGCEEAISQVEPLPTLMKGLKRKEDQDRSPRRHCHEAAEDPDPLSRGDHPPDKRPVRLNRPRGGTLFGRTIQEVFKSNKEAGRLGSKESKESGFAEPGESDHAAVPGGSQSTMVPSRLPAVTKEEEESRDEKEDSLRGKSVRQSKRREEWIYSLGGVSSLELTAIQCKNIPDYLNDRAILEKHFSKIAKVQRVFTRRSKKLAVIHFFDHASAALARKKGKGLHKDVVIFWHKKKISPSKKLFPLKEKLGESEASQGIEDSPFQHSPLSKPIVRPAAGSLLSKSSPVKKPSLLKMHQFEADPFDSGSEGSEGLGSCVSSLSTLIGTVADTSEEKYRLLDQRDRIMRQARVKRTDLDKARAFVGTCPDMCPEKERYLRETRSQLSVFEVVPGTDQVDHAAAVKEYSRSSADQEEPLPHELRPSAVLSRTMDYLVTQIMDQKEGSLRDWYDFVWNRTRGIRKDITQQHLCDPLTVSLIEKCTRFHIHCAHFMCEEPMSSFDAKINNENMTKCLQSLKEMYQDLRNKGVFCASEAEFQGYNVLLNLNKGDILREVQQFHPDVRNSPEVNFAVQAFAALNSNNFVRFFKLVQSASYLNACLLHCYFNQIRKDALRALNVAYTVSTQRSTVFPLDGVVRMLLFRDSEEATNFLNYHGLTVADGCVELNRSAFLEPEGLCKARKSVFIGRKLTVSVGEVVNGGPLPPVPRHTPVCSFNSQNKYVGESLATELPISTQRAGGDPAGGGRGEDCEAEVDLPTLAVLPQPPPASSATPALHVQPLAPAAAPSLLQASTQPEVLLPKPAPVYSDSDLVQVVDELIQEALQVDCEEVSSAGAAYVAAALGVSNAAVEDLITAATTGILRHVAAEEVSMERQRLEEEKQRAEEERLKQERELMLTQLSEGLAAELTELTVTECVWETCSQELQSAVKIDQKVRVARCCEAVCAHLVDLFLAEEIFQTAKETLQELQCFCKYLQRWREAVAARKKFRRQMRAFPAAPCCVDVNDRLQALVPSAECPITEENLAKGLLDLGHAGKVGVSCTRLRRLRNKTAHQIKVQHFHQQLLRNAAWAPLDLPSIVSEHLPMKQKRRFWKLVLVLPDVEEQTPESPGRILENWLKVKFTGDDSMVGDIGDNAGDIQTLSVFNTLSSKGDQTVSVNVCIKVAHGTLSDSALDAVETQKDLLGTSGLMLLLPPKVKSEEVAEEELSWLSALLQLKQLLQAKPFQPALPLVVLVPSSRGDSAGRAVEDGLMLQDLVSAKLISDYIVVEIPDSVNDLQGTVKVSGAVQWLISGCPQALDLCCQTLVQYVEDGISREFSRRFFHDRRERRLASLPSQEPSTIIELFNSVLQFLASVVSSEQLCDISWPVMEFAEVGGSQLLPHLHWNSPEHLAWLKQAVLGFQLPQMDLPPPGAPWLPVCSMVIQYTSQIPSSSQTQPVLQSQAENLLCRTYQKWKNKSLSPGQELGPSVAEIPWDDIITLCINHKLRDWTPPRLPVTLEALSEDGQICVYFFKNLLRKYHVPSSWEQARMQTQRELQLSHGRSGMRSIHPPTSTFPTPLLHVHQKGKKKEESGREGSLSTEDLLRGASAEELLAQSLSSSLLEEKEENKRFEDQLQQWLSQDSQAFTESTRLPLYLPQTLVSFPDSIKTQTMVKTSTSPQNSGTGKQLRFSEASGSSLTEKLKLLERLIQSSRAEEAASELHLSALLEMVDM

B1: MCM3 protein (other, mouse, UniProt P25206 2-812, looked up)
chain: AGTVVLDDVELREAQRDYLDFLDDEEDQGIYQNKVRELISDNQYRLIVSVNDLRRKNEKRANRLLNNAFEELVAFQRALKDFVASIDATYAKQYEEFYIGLEGSFGSKHVSPRTLTSCFLSCVVCVEGIVTKCSLVRPKVVRSVHYCPATKKTIERRYSDLTTLVAFPSSSVYPTKDEENNPLETEYGLSVYKDHQTITIQEMPEKAPAGQLPRSVDVILDDDLVDKVKPGDRIQVVGTYRCLPGKKGCYTSGTFRTVLIACNVKQMSKDIQPAFSADDIAKIKKFSKTRSKDVFEQLARSLAPSIHGHDYVKKAILCLLLGGVERELENGSHIRGDINILLIGDPSVAKSQLLRYVLCTAPRAIPTTGRGSSGVGLTAAVTTDQETGERRLEAGAMVLADRGVVCIDEFDKMSDMDRTAIHEVMEQGRVTIAKAGIHARLNARCSVLAAANPVYGRYDQYKTPMENIGLQDSLLSRFDLLFIMLDQMDPEQDREISDHVLRMHQYRAPGEQDGDALPLGSSVDILATDDPDFTQDDQQDTRIYEKHDSLLHGTKKKKEKMVSAAFMKKYIHVAKIIKPTLTQESAAYIAEEYSRLRSQDSMSSDTARTSPVTARTLETLIRLATAHAKARMSKTVDLQDAEEAVELVQYAYFKKVLEKEKKRKKASEDESDLEDEEEKSQEDTEQKRKRRKTHAKDGESYDPYDFSEAETQMPQVHTPKTDDSQEKTDDSQETQDSQKVELSEPRLKAFKAALLEVFQEAHEQSVGMLHLTESINRNREEPFSSEEIQACLSRMQDDNQVMVSEGIVFLI
notes: also called MCM3/P1
As to B1, the binding result is given as “binds”.

The values are drawn from US20040229309A1 (KUMAMOTO TECHNOLOGY AND INDUSTRY FOUNDATION, published 2004).
